Results published in patent US20230071765A1, “COMPOSITIONS HAVING THIOREDOXIN ACTIVITY AND RELATED METHODS” (ORPRO THERAPEUTICS, INC., priority 2020, published 2023).

Columns and labels:
[1] = material purified with removal of the red fraction, 68.4 mg/ml
[2] = tested on: CF patient sputum on wild type rat trachea; assay: CF sputum transport ex vivo on excised rat trachea (μOCT); set-up: species or system human sputum
Description: To determine the effect of ORP100S on CF sputum transportability, sputum specimens spontaneously expectorated from 4 CF patients hospitalized for pulmonary exacerbation were collected and stored at 4° C. before being divided into 200 μL aliquots and treated with ORP100S (3 mM), PBS, DTT (1.6 mM), or DNase (10 or 25 μg/ml) on the day of or day following collection. Upon treatment, sputum aliquots were placed in a 37° C. water bath for 2 hrs and then applied (3 μl per sample) for μOCT imaging to the distal end of trachea excised from adult non-CF rats. Trachea were washed 2× with 500 μl of PBS before sputum addition. Sample conditions were applied in triplicate in random order at distinct anatomic locations—2 washes using 500 μl of PBS were performed between each sample addition—and at least 3 images were collected from each region of interest. Confirmation of trachea viability was obtained by imaging with PBS upon completion of the experiment.
One-micron resolution spectral domain μOCT was used to obtain measurements of mucociliary transport (MCT) rate and ciliary beat frequency (CBF) in HBE monolayers and of MCT rate of sputum ex vivo. This first-in-kind, high-speed (40 frames per second, 512 lines per frame) microscopic reflectance imaging modality enables simultaneous anatomic imaging in cell cultures and intact tissues that readily distinguishes the properties of CF compared to normal epithelia (Liu L, Chu K K, Houser G H, Diephuis B J, Li Y, Wilsterman E J, Shastry S, Dierksen G, Birket S E, Mazur M, et al., 2013, Method for quantitative study of airway functional microanatomy using micro-optical coherence tomography, PLoS One 8(1):e54473; Tuggle K L, Birket S E, Cui X, Hong J, Warren J, Reid L, Chambers A, Ji D, Gamber K, Chu K K, et al., 2014, Characterization of defects in ion transport and tissue development in Cystic Fibrosis Transmembrane Conductance Regulator (CFTR)-knockout rats. PLoS One 9(3):e91253). In addition to MCT rate and CBF, μOCT also has the capability to assess physical characteristics of the airway surface liquid. Images were captured, and MCT rate and CBF calculated, as described in the preceding references.
The effect of ORP100S on mucus clearance using intact rat trachea, which include the complexities of the airway surface such as gland expression of a fully differentiated mucosal surface, was further evaluated. […] MCT was measured by projecting a cross-sectional line through the mucus through time, with the slope of the particle trajectories indicating velocity. […]

[3] = tested on: 4% HBE mucus from CF donors; assay: rheology of 4% solids CF HBE mucus (G′, G″); type: biochemical, human; settings: 1 hr at 37° C.
Text: Mucus Preparation: Aseptic mucus was harvested from over 100 individual HBE cultures from 20 different CF donors and prepared to four weight-percent (4%) solids, a concentration that typifies chronic obstructive pulmonary disease (COPD) and mild CF (Hill, D. B. et al., 2014, A biophysical basis for mucus solids concentration as a candidate biomarker for airways disease, PloS one 9, e87681; Anderson, W. H. et al., 2015, The relationship of mucus concentration (hydration) to mucus osmotic pressure and transport in chronic bronchitis., Am J Resp Crit Care Med 192: 182-90). Rheology: HBE cell culture mucus was treated with DTT (1 mM) and several concentrations of ORP100S (0.01, 0.1, and 1.0 mM) for 1 hr at 37° C. following previously established methods (Hill, D. B., and Button, B., 2012, Establishment of respiratory air-liquid interface cultures and their use in studying mucin production, secretion, and function. In Mucins: Methods and Protocols, D. J. Thornton, ed., pp. 245-58; Youngren-Ortiz, S. et al., 2017, Development of optimized inhalable Gemcitabine-loaded gelatin nanocarriers for lung cancer, J Aerosol Med Pulm Drug Delivery 30:299-321; Seagrave, J., et al., 2012, Effects of guaifenesin, N-acetylcysteine, and ambroxol on MUC5AC and mucociliary transport in primary differentiated human tracheal-bronchial cells, Respir Res 13: 98). Concentration and time course assays were performed using a TA Instruments DHR3 rheometer to assess the bulk, macroscopic biophysical effects of test article and controls on HBE mucus properties. Briefly, the linear regime of a 1 Hz amplitude (stress) sweep was identified for each treatment condition. […] Creep recovery experiments were performed in which a known stress (between 0.05 and ˜100 Pa) was applied to treated or control mucus for 10 seconds, and the rheological recovery of the fluid was recorded for an additional 50 seconds. […] From the measured parameters the viscosity and elasticity of the fluid were determined as a function of applied stress. Frequency sweeps were performed at both constant stress and strains and used to determine the baseline physical properties of mucus and its elastic and viscous components (G′ and G″, respectively). Mucin molecular weight determination: Molecular weight reduction following test article treatment was determined using a combination of gel-permeation chromatography with multi-angle laser light scattering on a Wyatt Heleos MALLS system. MALLS is a rapid and accurate means of determining molecular size and mass of high MW biomolecules in a non-destructive manner without requiring the use of relative standards. Briefly, 4% HBE treated samples were diluted 100-fold in 0.9% NaCl with 10 mM EDTA and 0.01% sodium azide. 0.2 mL of diluted sample was eluted through a Sepharose CL2B column to separate high MW mucins from other mucus proteins, and the mucin fraction was introduced into the MALLS system. Mucin MW was determined by fitting a Berry model to light scattering from 11 different angles using Wyatt Astra software.
FIGS. 5, A and B (top): Reduction in Elastic (G′) and Viscous (G″) moduli of 4% solids dry weight mucus reduced with DTT (1 mM) and ORP100S (0.01, 0.1, and 1.0 mM concentrations) for 1 hr at 37° C. […] All data were collected by examining frequency sweeps of mucus performed in the linear regime and analyzed at 1 rad/s on a TA DHR3 rheometer.

B1: ORP100S: thioredoxin with monothiol active site, Cys35 and non-active Cys 62, 69 and 73 substituted with serine (SEQ ID NO:29) (protein)
chain: MVKQIESKTAFQEALDAAGDKLVVVDFSATWCGPSKMIKPFFHSLSEKYSNVIFLEVDVDDSQDVASESEVKSMPTFQFFKKGQKVGEFSGANKEKLEATINELV
modifications: synthetic peptide motif
Endotoxin level (Endosafe PTS) [1]: 0.002 EU/mg
sputum density vs. PBS-treated sputum ([2]; 3 mM, μOCT images): effective in decreasing sputum density
change in MCT rate normalized to the effect of PBS ([2]; sputum treated 2 hrs, ORP100S 3 mM, DTT 1.6 mM, DNase 10 or 25 μg/ml): 3.80±0.35 fold vs. PBS
MCT rate of treated sputum ([2]; sputum treated 2 hrs, ORP100S 3 mM, DTT 1.6 mM, DNase 10 or 25 μg/ml, PBS 0.97±0.17): 4.68±0.9 mm/min
reduction in elastic modulus G′ ([3]; 10 μM): significant reduction in G′ was not apparent
reduction in viscous modulus G″ ([3]; 10 μM): ~2 fold
reduction in viscous modulus G″ ([3]; 100 μM): reduced by a similar amount as observed with 10 μM
elastic modulus G′ ([3]; 100 μM, baseline value 0.28 Pa): 0.19 Pa
reduction in G′, factor ([3]; 1 mM): ~3
reduction in G″, factor ([3]; 1 mM): ~3
